From patent US20180134756A1 (NATIONAL INSTITUTE OF ADVANCED INDUSTRIAL SCIENCE AND …, published 2018)

Molecular target: T1, Aleuria Aurantia Lectin (AAL) (Aleuria aurantia, UniProt P18891 2-313)
T1 construct: Used as the probe in lectin blotting
T1 sequence (looked up): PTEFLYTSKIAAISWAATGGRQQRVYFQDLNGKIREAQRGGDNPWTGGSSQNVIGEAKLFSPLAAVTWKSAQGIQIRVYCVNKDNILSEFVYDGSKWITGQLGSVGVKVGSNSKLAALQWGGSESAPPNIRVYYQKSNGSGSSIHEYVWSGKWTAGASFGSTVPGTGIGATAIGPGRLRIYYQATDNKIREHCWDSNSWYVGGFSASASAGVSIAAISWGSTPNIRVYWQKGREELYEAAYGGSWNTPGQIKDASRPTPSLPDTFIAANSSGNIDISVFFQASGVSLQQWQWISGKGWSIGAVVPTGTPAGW
Assay: lectin blotting
Experimental: It was reported that the natural WFA (nWFA) has a sugar chain including fucose, and thus, the lectin blotting was performed using Aleuria Aurantia Lectin (AAL) recognizing fucose. As a result, it was confirmed that the nWFA was a glycoprotein including a sugar chain that reacted to AAL (FIGS. 5A and 5B).

B1: natural Wisteria floribunda lectin (nWFA), purified, purchased from Vector Lab (other)
chain: KETTSFVFTRFSPDPQNLLLQGDTVVTSSGHLQLTQVKDGEPVYSSLGRALYYAPIHIWDSNTDTVANFVTSFSFVIDAPNKAKAADGLAFFLAPVDTEPQKPGGLLGLFHDDRHNKSNHIVAVEFDTFKNSWDPEGTHIGINVNSIVSRKTTSWDLENGEVANVVISYQASTKTLTASLVYPSSSTSYILNDVVDLKQILPEYVRVGFTAASGLSKDHVETHDVLAWTFDSDLPDPSSDDCN
modifications: one N-glycan (fucose-containing) expected at Asn146; disulfide bond between the two Cys272
notes: Lectin purified from seeds; Disulfide-linked dimer of about 60 KDa; also called natural WFA; nature-derived WFA
binding result: binds
